The results in this text go back to patent WO2002045743A2.

In experiment [1] the target is MH2 peptide (Hepatitis C virus). The experiment can be described thus: peptide EIA (Table 4).
The target is the same in experiment [2]. The experiment can be described thus: IAsys biosensor, BSA-HVR1 peptide conjugate.
Experiment [3] has the same target. The experiment can be described thus: peptide EIA, Nunc-Immuno and CovaLab plates.

B1: mAb 15H4 (antibody)
chain 1: QVQLQQSGAELARPGASVKLSCKASGYTFTRYWMQWVKQKPGQGLEWIGAIYCGDGDTRFTQKFKGKATLTADKSSSTAYMQLSNLASEDSAVYYCVIYGNYYDAMDYWGQGTSVTVSS
chain 2: DIVMTQAPLSMPVSLGDQASISGRSSQSLVHSNGNTYLHWYLQKPGQSPKLLIHKVSKRFSGVPDRFSGSGSGTDFTLKIRRVEAEDLGVYFCSQNTHVPFTFGGGTK
As to B1, the EIA Sample/Cutoff ratio (S/CO) in experiment [1] was 13.6 S/CO; in experiment [3], 18.1 S/CO. Besides, the Kd – broadly, the constant that tells how readily two partners part at equilibrium – in experiment [2] came to 21.5 nM.

B2: mAb 2P24 (antibody)
chain 1: EFQLQQSGAELVRPGPLVTLSCKASGFNIKDYYMNWVKQRPEQGLEWIGRIDPKNGNALYDPKFQDKARITADTSSNTAYLQLNSLTSEATAVYYCSSGWLDYWGQGTSLAVYS
chain 2: DIVMTQSPASLAVFRGQRATISYRASKSVSTSGYSYMHWNQQKPGQPPRLLIYLVSNLESGVPARFSGSGSGTDFTLNIHPVEEEDAATYYCQHIRELTAFGGGTK
Turning to B2, the EIA Sample/Cutoff ratio (S/CO) in experiment [1] and in experiment [3] was 24.9 S/CO throughout. The molecule also showed a dissociation constant (Kd) in experiment [2] of 5.85 nM.
